Results taken from patent publication US20250195677A1 (CEPHALON, published 2025).
Positions count from the first letter of the chain named.

B1: OMC.1.B6-hIgG4 (antibody, V domains shown)
VH: EVQLLESGGGLVQPGGSLRLSCAASGFTFSSNYMSWVRQAPGKGLEWVSAISSSGGTIFYADSVKGRFTISRDNSKNTLYLQMNSLRAEDTAVYYCAKHKWNAVYYDGMDVWGQGTTVTVSS
VL: QSVLTQPPSASGTPGQRVTISCSGSNSNIGRNLVNWYQQLPGTAPKLLIYTIDQRPSGVPDRFSGSKSGTSASLVISGLQSEDEADYYCAAWDGSLNAWVFGGGTKLTVLG
B2: OMC.1.D6-hIgG4 (antibody, V domains shown)
VH: B1 VH with S31D, N32Y, T69I, A103D, G108A
VL: B1 VL with I52V, V75A, Q80A, G94S, A98S
B3: OMC.2.C6-hIgG4 (antibody, V domains shown)
VH: EVQLLESGGGLVQPGGSLRLSCTASGFTFSSYEMQWVRQAPGKGLEWVLGITSSSSHIFYADSVKGRFTVSRDNSKNTLYLQMNSLRAEDTAVYYCTKDLNSYYGLDVWGQGTTVTVSS
VL: QSVMTQPPSASGTPGQRVTISCSGSTSNLGNNYVSWYQHLPGTAPKLLIYGNDQRPSGVPDRFSGSKSGTSASLAISGLQSDDEADYYCSSWDASLNVWVFGGGTKLTVLG
B4: 2A3.H7-hIgG4 (antibody, V domains shown)
VH: EVQLLESGGGLVQPGGSLRLSCAASGFTFKDYCMTWVRQAPGKGLEWVSAIVYSGGSTYYADSVKGRFTISRDNSKNTLYLQMNNLRAEDTAVYYCAKYTRASYFYDAMDVWGQGTTVTVSS
VL: EIVLTQSPGTLSLSPGERATLSCRASQSIGRSFLAWYQQKPGQAPRLLIYDASTRAADIPARFSGSGSGTDFTLTISSLEPEDFAVYYCQQYYDWPPLSFGGGTKVEIKR
B5: 1D5-hIgG4 (antibody, V domains shown)
VH: B4 VH with A23V, A24G, T28N, N85S, A102G
VL: B4 VL with A57T, A61D, D71E, E80Q, P81S, S99T
B6: 1H9-hIgG4 (antibody, V domains shown)
VH: B4 VH with A23V, A24G, T28N, F29L, N85S, A102G
VL: B4 VL with A61D, S77N, S78R, S99T
B7: A2-hIgG4 (antibody, V domains shown)
VH: DVQLVESGGGLVQPGGSLRLSCAASGFTFDISAMSWVRQAPGKGLEWVSTISGSAYSTYYADSVKGRFTISRDNSKSTLYLQMNSLRAEDTAVYYCAREIFSDYWGLGTLVTVSS
VL: QSVLTQPPSASGTPGQRVTISCSGSTSNIGRESVYWYQQLPGTAPKLLIYSNVQRPSGAPNRFSGSKSGTSASLAISGLQSEDEADYYCGTWDDSLNGWVFGGGTKLTVLG
B8: 2H7-hIgG4 (antibody)
heavy: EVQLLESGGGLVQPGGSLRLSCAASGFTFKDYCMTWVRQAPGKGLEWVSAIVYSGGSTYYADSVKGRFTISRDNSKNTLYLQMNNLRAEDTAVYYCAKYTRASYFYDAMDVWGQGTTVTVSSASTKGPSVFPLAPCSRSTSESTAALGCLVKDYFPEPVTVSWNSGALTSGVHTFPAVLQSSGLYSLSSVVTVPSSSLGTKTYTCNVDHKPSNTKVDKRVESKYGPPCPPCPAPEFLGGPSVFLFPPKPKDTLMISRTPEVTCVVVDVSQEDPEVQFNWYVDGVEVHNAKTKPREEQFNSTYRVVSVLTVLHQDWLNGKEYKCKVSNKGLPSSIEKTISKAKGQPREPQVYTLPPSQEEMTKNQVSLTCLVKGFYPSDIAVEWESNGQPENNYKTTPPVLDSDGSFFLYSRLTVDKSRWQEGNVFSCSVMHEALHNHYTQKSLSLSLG
light: EIVLTQSPGTLSLSPGERATLSCRASQSIGKSFLAWYQQKPGQAPRLLIYDASTRAADIPARFSGSGSGTDFTLTISSLEPEDFAVYYCQQYYDWPPLSFGGGTKVEIKRTVAAPSVFIFPPSDEQLKSGTASVVCLLNNFYPREAKVQWKVDNALQSGNSQESVTEQDSKDSTYSLSSTLTLSKADYEKHKVYACEVTHQGLSSPVTKSFNRGEC
notes: human IgG4 kappa
B9: C51E6-5-hIgG4 (antibody, V domains shown)
VH: QVQLVQSGSELKKPGASVKVSCKASGYSLYGTSMHWVRQAPGQGLEWMGYISPFTGRATYAQGFTGRFVFSLDTSVSTAYLQISSLKAEDTAVYYCARDYDYRYYYAMDYWGQGTTVTVSS
VL: EIVLTQSPDFQSVTPKEKVTITCTASESVPPQFLHWYQQKPDQSPKLLIYASRERASGVPSRFSGSGSGTDFTLTINSLEAEDAATYYCHQFHRSPLTFGGGTKLEIKR

biological target: human PD-1 on Jurkat Effector cells (Promega PD-1/PD-L1 blockade bioassay) (human, UniProt Q15116 25-288); assay: cell-based or functional assay
Sequence (Q15116 25-288): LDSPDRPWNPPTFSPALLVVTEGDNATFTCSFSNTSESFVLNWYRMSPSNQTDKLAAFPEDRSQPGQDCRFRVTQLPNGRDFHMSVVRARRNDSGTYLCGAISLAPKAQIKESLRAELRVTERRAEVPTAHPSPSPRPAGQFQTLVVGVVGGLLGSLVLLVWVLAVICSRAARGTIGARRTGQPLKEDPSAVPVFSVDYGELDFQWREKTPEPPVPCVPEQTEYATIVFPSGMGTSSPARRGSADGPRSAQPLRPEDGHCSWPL

| Binder | luminescence, hPD-1/hPD-L1 blockade bioassay [RLU] |
| --- | --- |
| B1 | ~3000 |
| B2 | ~3000 |
| B3 | ~3000 |
| B4 | ~3000 |
| B5 | ~3000 |
| B6 | ~3000 |

biological target: T1, human PD-1 (amino acids 1-185) stably expressed on Jurkat cells (human, UniProt Q15116 21-185); assay: flow cytometry, Jurkat+hPD-1
T1 construct: extracellular domain and a portion of the transmembrane domain, on cells; also called hPD-1; Jurkat+hPD-1 cell line
Procedure: (§1) Antibodies or antibody-attenuated hIL-2 immunoconjugates (fusion proteins) were serially diluted six-fold in FACS buffer for an 8-point curve and added to human PD-1 expressing Jurkat cells for 1 hour on ice in 100 μL volume. Cells were washed and re-suspended in FACS buffer containing 1:40 dilution of Allophycocyanin conjugated anti-human IgG Fc monoclonal antibody. Cells were washed once more, re-suspended in FACS buffer containing 1:1000 dilution of Sytox Green (Thermo Fisher) and flow cytometric analysis was conducted on the BD FACS Canto II, BD Celesta or BD Fortessa (BD Biosciences) flow cytometers. The geometric mean fluorescent intensity (gMFI) was calculated using FlowJo software version 10. Half maximal effective concentration (EC₅₀) values were calculated from the gMFI of the Allophycocyanin signal across the titrated concentrations using GraphPad Prism 7 software.
(§2) The anti-PD-1 variable region sequences were expressed as human IgG4 kappa antibodies and were evaluated for the ability to bind to PD-1 expressing cells using flow cytometry as described in General Methods Protocol A. Antibodies to be tested were first screened for binding to human PD-1 using a Jurkat cell line expressing recombinant human PD-1 (Jurkat+hPD-1 cell line).

T1 sequence (Q15116 21-185 limits assumed, form in doubt): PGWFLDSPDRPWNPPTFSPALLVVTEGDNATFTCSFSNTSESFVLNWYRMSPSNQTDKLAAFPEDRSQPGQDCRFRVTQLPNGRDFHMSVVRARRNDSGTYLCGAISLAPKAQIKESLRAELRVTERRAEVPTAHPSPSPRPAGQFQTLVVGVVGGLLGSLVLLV

| Binder | EC50 [nM] |
| --- | --- |
| B1 | 3 to 16 |
| B2 | 3 to 16 |
| B3 | 3 to 16 |
| B7 | 3 to 16 |

biological target: T1, human PD-1 (amino acids 1-185) stably …; assay: flow cytometry, Jurkat+hPD-1, multiple experiments
Procedure: as §1, §2

| Binder | EC50 [nM] |
| --- | --- |
| B4 | 0.1 to 0.3 |
| B5 | 0.1 to 0.3 |
| B6 | 0.1 to 0.3 |
| B8 | 0.1 to 0.3 |

biological target: T1, human PD-1 (amino acids 1-185) stably …; assay: flow cytometry, Jurkat+hPD-1 cells, APC anti-human IgG Fc, gMFI; no competitor
Procedure: Briefly, Jurkat cells stably expressing hPD-1 (as described in Protocol A above) were washed and re-suspended in FACS buffer containing 1:50 dilution of human FcR Blocking reagent. Cells were incubated at 4° C. for 10 minutes and washed. […] Cells were washed and incubated with test antibodies or antibody-attenuated hIL-2 fusion proteins serially diluted six-fold for an 8-point curve in 100 μL volume for one hour at 4° C. To detect bound test anti-hPD-1 antibodies or anti-hPD-1-attenuated hIL-2 fusion proteins, cells were washed again and incubated with 1:40 dilution of Allophycocyanin-conjugated anti-human IgG Fc monoclonal antibody for 45 minutes on ice. Cells were washed and re-suspended in FACS buffer containing 1:1000 dilution of Sytox Green (Thermo Fisher). […] Flow cytometry was carried out on the BD Canto II, BD Celesta, or BD Fortessa (BD Biosciences) flow cytometers and gMFI was calculated using FlowJo software version 10. EC₅₀ values were calculated from the gMFI of the Allophycocyanin signal across the titrated concentrations using GraphPad Prism 7 software.

| Binder | EC50 (read off the curve) [nM] |
| --- | --- |
| B9 | ~3 |
